{"source": "paper PMC8844822", "about": "“SARM1 is a multi-functional NAD(P)ase with prominent base exchange activity, all regulated bymultiple physiologically relevant NAD metabolites” (iScience, 2022)", "system": "T1, NC(=O)c1ccc[n+]([C@@H]2O[C@H](COP(=O)([O-])OP(=O)(O)OC[C@H]3O[C@@H](n4cnc5c(N)ncnc54)[C@H](O)[C@@H]3O)[C@@H](O)[C@H]2O)c1", "T1 construct": "a soluble fragment Val43-Ile300 with 6x-His tag at C terminus; 6xHis (C); purchased R&D Systems", "assay": "NAD(P)ase activity by HPLC (kinetics, substrates, metal ions)", "assay_type": "biochemical, human", "details": "other: hCD38, substrate as labelled, 25°C, pH 7.5", "protocol": "hSARM1 species were routinely assayed by the NAD/NADH-Glo^TM Assay (Promega) while both Aplysia cyclase and CD38 were assayed by fluorometry using ϵNAD ([Orsomando et al., 2000]). […] Other reagents used in addition to, or in place of those above are detailed in text or in figure legends, for example metal ions, free bases, dinucleotide analogues, mononucleotides, and ribosides. Assays were all carried out at 25°C except for temperature studies. Reactions were stopped by HClO4/K2CO3 and analysed by C18-HPLC as reported ([Mori et al., 2014]). Only the acid labile NADH and NADPH were treated with 1 N NaOH and neutralized using 1:1 vol of 1.73 M KH2CO3 while the highly hydrophobic metabolites vacor, VAD, VMN and VR, were analysed by a modified C18-HPLC method ([Buonvicino et al., 2018]). Reaction products were quantified from peak areas (see Figure 2A) based on coelution with standards (except for cyclic products from NAD analogues that were not available and were attributed based on UV-spectra and retention times as predicted). Rates were calculated as follows. Hydrolysis and cyclization were measured from product generation from the respective individual dinucleotide substrate used, e.g., free and cyclic ADP-ribosyl moieties from NAD (Figure 1B). A basal value for hydrolysis/cyclization was taken as sum of these latter two products. […]"}
{"substance": "human CD38 (Homo sapiens)", "values": [{"measurement": "Km", "value": "10.4 ± 2.90", "unit": "µM"}, {"measurement": "Vmax", "value": 6.65, "unit": "µmol/min/mg"}]}
